Here are results for two molecules from paper PMC5068790.

The target of experiment [1] is Drosophila Slo1 (BK channel α subunit) (Drosophila) (UniProt Q03720).
Experiment [2] addresses mouse Slo1 (BK channel α subunit) (mouse) (UniProt Q08460).
UniProt Q08460, sequence (Q08460 whole entry): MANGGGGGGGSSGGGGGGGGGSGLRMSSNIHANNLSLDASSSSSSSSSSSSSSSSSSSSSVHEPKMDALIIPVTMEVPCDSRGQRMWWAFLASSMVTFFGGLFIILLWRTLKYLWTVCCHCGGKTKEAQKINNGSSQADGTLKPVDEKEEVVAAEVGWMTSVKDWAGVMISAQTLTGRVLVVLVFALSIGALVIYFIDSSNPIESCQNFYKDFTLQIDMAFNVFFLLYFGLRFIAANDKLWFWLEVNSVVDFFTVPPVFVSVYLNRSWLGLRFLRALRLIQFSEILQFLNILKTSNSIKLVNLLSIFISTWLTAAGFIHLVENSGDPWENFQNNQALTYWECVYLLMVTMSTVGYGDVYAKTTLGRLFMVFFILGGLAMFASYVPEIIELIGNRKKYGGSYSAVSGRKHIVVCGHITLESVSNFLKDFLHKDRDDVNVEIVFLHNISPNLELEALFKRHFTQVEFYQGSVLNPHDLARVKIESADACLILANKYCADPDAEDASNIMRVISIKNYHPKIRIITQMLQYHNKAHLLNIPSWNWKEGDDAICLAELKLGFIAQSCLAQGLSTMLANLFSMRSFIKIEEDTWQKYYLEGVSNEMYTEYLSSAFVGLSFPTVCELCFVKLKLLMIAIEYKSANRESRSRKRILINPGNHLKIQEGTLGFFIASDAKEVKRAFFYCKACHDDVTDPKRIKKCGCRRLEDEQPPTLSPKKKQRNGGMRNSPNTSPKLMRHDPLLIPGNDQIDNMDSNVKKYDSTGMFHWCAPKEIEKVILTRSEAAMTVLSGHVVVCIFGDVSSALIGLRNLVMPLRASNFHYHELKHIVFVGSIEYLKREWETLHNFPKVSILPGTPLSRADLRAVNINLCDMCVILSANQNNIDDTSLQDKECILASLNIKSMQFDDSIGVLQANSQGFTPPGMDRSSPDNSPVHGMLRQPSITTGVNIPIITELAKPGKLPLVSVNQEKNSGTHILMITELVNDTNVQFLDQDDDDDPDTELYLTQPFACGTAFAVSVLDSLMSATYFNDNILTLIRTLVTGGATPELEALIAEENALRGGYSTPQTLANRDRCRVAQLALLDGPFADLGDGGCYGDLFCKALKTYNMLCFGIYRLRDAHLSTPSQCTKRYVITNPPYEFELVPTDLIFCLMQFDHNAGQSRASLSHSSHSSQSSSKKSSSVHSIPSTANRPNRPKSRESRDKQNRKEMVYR

UniProt Q03720, sequence (Q03720 whole entry): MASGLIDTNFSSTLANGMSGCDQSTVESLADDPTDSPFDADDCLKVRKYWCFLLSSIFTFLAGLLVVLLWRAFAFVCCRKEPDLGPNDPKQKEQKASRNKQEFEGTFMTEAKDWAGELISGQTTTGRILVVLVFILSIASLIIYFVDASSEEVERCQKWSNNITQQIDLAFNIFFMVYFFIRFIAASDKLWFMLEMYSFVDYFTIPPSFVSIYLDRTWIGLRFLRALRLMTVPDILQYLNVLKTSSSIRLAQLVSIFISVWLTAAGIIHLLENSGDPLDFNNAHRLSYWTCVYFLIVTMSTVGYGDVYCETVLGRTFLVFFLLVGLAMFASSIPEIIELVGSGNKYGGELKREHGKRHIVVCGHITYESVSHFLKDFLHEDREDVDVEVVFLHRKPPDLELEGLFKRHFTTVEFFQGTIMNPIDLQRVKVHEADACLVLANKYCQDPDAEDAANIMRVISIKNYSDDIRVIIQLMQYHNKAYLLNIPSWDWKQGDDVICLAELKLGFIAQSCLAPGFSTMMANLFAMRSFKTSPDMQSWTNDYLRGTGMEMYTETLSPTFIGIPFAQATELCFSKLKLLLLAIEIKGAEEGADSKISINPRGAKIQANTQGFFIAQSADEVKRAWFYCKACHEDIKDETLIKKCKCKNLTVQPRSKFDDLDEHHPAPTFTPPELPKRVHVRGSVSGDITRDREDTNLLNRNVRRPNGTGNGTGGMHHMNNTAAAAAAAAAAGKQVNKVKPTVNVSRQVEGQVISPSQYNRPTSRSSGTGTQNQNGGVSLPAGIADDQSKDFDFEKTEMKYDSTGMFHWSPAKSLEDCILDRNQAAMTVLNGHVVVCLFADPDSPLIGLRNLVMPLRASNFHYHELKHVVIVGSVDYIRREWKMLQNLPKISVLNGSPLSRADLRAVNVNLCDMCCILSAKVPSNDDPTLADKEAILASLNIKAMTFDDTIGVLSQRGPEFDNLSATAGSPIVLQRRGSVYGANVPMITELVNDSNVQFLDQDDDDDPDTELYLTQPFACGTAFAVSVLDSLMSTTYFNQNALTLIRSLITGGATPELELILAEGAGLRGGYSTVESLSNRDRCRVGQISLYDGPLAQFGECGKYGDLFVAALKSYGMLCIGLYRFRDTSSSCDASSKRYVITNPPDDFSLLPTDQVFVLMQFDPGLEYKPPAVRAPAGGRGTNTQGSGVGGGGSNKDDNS

B1: Δ3-β2 (β2 subunit with the inactivation ball FIW deleted) (natural protein)
chain: MTSGRTSSSYRHDEKRNIYQKIRDHDLLDKRKTVTALKAGEDRAILLGLAMMVCSIMMYFLLGITLLRSYMQSVWTEESQCTLLNASITETFNCSFSCGPDCWKLSQYPCLQVYVNLTSSGEKLLLYHTEETIKINQKCSYIPKCGKNFEESMSLVNVVMENFRKYQHFSCYSDPEGNQKSVILTKLYSSNVLFHSLFWPTCMMAGGVAIVAMVKLTQYLSLLCERIQRINR
For the molecule B1, the patch clamp, inside-out patches of HEK293 cells, transfection ratio 1:0.2: share of random tests with slow activation (called β2 binding rate) in experiment [1] amounted to 100%. The patch clamp, inside-out patches of HEK293 cells, α:β2 transfection ratio 1:0.2, 10 μM Ca2+: share of random tests with a left shift of V50 to −30 mV from about +25 mV (called binding rate) in experiment [2] was 100%.

B2: BK channel auxiliary β2 subunit (natural protein)
chain: MFIWTSGRTSSSYRHDEKRNIYQKIRDHDLLDKRKTVTALKAGEDRAILLGLAMMVCSIMMYFLLGITLLRSYMQSVWTEESQCTLLNASITETFNCSFSCGPDCWKLSQYPCLQVYVNLTSSGEKLLLYHTEETIKINQKCSYIPKCGKNFEESMSLVNVVMENFRKYQHFSCYSDPEGNQKSVILTKLYSSNVLFHSLFWPTCMMAGGVAIVAMVKLTQYLSLLCERIQRINR
B2: the patch clamp, inside-out patches of HEK293 cells: share of random tests with inactivation or brief openings (β2 binding ratio) at α:β2 transfection ratios 1:0.2 (about 7%), 1:1, 1:4 and 1:8 in experiment [1] was determined as 85%. Besides, the patch clamp, inside-out patches of HEK293 cells, α:β2 transfection ratio 1:0.2: share of random tests whose currents showed rapid and complete inactivation (called binding rate) in experiment [2] is 100%.
